Test: soluble on expression in E. coli; label from the status in PepcDB or PDB records

Sequence | soluble on expression in E. coli
MNEINESYDTDSVREFTVSDADAGPYALAEGPDGALWFTLVHRGAVARRDPDDGRVTVHPVGDGPTVIAPGPDGALWFTEYRAHRIGRITPEGHYASFAPLTPEGGPFGITAGPDGAMWFTLSSADRVGRVTMDGEVTEHPAPGAFPSALTAGPDGALWCTLNQGNAIGRLTPDGHGTAYPLPTPGAAPVGIAAGPDGALWFTEIGAGRIGRITVTGDLTEYPLSDPAARPHAVTAGPNGALWFTEWGSGRVGRITVDGRVTSYPLSRTDCEPHGIAVHDGALWCALETGSLARIQVPA | soluble
MNEIYDREQMIKLLDLAKNTEMELPINLAIGLGLRISEVLGLTWDNIDFEENTITVNKITSRINGSVILKEPKTESSVRKISSPKELMSLLKEYKIKQNKNLLKSSIRNNNNLLFFNKKCEPIAEDVMSKKFKRFLEKNELPHIRFHDLRHSHVTLLINSKVPIKVISERVGHSNISTTLSVYSHVLKEMDKEASDKISESLFNANLEHHHHHH | not soluble
MNELVDTTEMYLRTIYDLEEEGVTPLRARIAERLDQSGPTVSQTVSRMERDGLLRVAGDRHLELTEKGRALAIAVMRKHRLAERLLVDVIGLPWEEVHAEACRWEHVMSEDVERRLVKVLNNPTTSPFGNPIPGLDELGVGPEPGADDANLVRLTELPAGSPVAVVVRQLTEHVQGDIDLITRLKDAGVVPNARVTVETTPGGGVTIVIPGHENVTLPHEMAHAVKVEKV | soluble
MNENQLSKRLATVGDLIPRGSRLADIGSDHAYLPVALMLENKLSFAVAGEVVEGPYQSAKTQVSKSNLTDKIIVRLANGLDAIEPEDQIDVISICGMGGTLIRDILEAGRKKNRLTGKERLVLQPNIGEPTLRRWLMANDYSIIDETIVEENRKLYEIIVAEKTEQSVSYTDQELLFGPVLIKKQGPVFTKKWQRELKQRKTVLAQLAKASGEHIEKQAKLQQDQQLIEEVLANGCER | not soluble
MNERGMLVDPRFDAFFKLEQIDDYKYDGADTSPSTSNGLPETSNGGRLICDVCGDVAFGKHYGINACNGCKGFFRRSVWSRRQYSCRFGGDCPVVKEHRNVCRSCRLKKCFEVGMNPDSVQNERDRNAKNGGMGGPMSSPTQSSLCKELTISNGQIKRKRLRPETVEKTTQTDGKLEINDDFDFENMQQNPTPPGLLPLKIERISTPPSDLPVPMDFSIHSAVLDIEQKVFYNCPVAVDNSINATKTPITLPFEVVFRQPHLVCNRYPMRFSNTRVLTPEDLIDGWRRHFTYYSDWCHAMDEFKALSPEDQIVLAKKKIILHGWLVHAYYSYKSGCNGICFANGAAHLPEGGHPSITEFYKECMPRYLNYVIYPMHNFQMDDAEMVLIKCIMFFSSESGLSAAGRQIVSAAREKYLSALYNYGRANKCTTSAQATLRIAKFMIMLSAITSLTHLMNEGVHVTSLFNIIEFDELIQATHKTTPPQHSPPAPMG | not soluble
MNFNVIICGVGGQGVVLASRLLAITAMNSGFHVNTAETLGMSQREGSVVSHLQFGENIKSSLIPEGSTDLIIGLEVSEVARNIHFLKKDGKIITNSNLILPSARSSNEKYDSEKIINFIKEKVKSTICIDFSKIAKVAGNPKSMNVSVLSAAFYTGFLPLEYEDFLKTIESEIPEKYRDINLNATKLSAETISNMLEGHNE | not soluble
MNFRTGQPSDAAALAAISIEVWLGTYMRKGVSAFFAEYALNEFTSTKMASLLKDPNEHVIVSENEGGIDAFIRLGQGRAAPVSGCSTLEIATLYVQPRHHRRGLGRALLEQGLAYARQASAPSVWLTTNSENAPAIAFYLEQGFEKVGTTHFNIGDQ | not soluble
MNGNQARNDIDEWLKTAACIKHPAGCVDQDGHSAFSDREGNLFQLAVPDAFSSLHLYGTLLELQPAVDGRVLASALAINAQKNVLRGSVIALNTENQELFVHHTVTLESLDRVALWQTLDNFVALTRELRSALRSQPVPAAKIESTHFNHLRRGF | not soluble
MNGSADAGPRPRKYVFITGGVVSSLGKGILTSSLGALLRARGYRVTAIKIDPYVNVDAGTMRPYEHGEVFVTADGAETDLDIGHYERFLDMDLSRGNNLTTGQVYLSVIQKERRGEYLSQTVQVIPHITDEIKERIRKVAEEQKAEIVVVEVGGTVGDIESLPFLEAIRQFRFDEGEGNTLYLHLTLVPYLETSEEFKTKPTQHSVATLRGVGIQPDILVLRSARPVPEEVRRKVALFTNVRPGHVFSSPTVEHLYEVPLLLEEQGLGRAVERALGLEAVIPNLSFWQEAVRVLKHPERTVKIAIAGKYVKMPDAYLSLLEALRHAGIKNRARVEVKWVDAESLEAADLDEAFRDVSGILVPGGFGVRGIEGKVRAAQYARERKIPYLGICLGLQIAVIEFARNVAGLKGANSTEFDPHTPHPVIDLMPEQLEVEGLGGTMRLGDWPMRIKPGTLLHRLYGKEEVLERHRHRYEVNPLYVDGLERAGLVVSATTPGMRGRGAGLVEAIELKDHPFFLGLQSHPEFKSRPMRPSPPFVGFVEAALAYQERA | soluble
MNHMEILSFPAGPYQTNCYVVLSEESEGRRYASVIDPGLRAKELIDQYCEENRVEVVQVLLTHGHIDHCRDAAALANGWGVALQIHRYDEFFLDKGNGMSEDSRLLFHADAMNLPDSVSYLGDGDEVELGGQRFVVRHAPGHSPGCVLFVGKDFCFSGDVLFKGSIGRTDLAHSDPHAMSNSIKSVVLGLEDSLTILPGHGPATTMRAEKASNPYLRV | not soluble
MNIAKLIDHTILKANTTKEDVMKVIEEAKEYKFASVCINPTWVKLAAEELAGHDVDVCTVIGFPLGASTTETKAFETKDAIAKGATEVDMVINVGALKDGDNELVEKDIYEVVQAAKGKALVKVIIETCLLTDEEKVRACELSVKAGADFVKTSTGFSTGGATAEDIALMRKTVGPNVGVKASGGVRTREDAEKMVAAGASRVGASASVAIVLNDAKGATDNY | not soluble
MNIILKISGKFFDEDNVDNLIVLRQSIKELADNGFRVGIVTGGGSTARRYIKLAREIGIGEAYLDLLGIWASRLNAYLVMFSLQDLAYMHVPQSLEEFIQDWSHGKVVVTGGFQPGQSTAAVAALVAEASSSKTLVVATNVDGVYEKDPRIYADVKLIPHLTTQDLRKILEGSQSVQAGTYELLDPLAIKIVERSKIRVIVMNYRKLNRIIDILKGEEVSSIIEPV | soluble
MNINEPSVSIIMATYNSEKFLRETLDSICCQTYGNWELIITDDSSTDNTSDILRDYSERYNNIFYSINEVNQGAAISRNKCISQAKGMYIAFIDSDDLWAHNKLEKHIHFIAEHNSAISFTSYELMNENGIPLGKYVDANIPPVLTYNDMLRKKATIGCSTVILSSKLVGEFKMPLLRTGQDYATWLLLLKKVEVAHHFPKVLTKYRVCKNSISRNKFKKAKRQWQIYREVEKLPFYESIVCFCFYAWRAVFRK | not soluble
MNINIVTIGKLKEKYLKQGIEEYTKRLSAYAKIDIIELPDEKAPENLSDQDMKIIKDKEGDRILSKISPDAHVIALAIEGKMKTSEELADTIDKLATYGKSKVTFVIGGSLGLSDTVMKRADEKLSFSKMTFPHQLMRLILVEQIYRAFRINRGEPYHKLEHHHHHH | soluble
MNIRPLHDKLIVERLEVENKSEGGIVLTSQSVKKSNRGKVVAVGLGRPLKNGDRARMEVKTGDQIIFNDGYGVKTEKVDGKEYLILSESDVLAIVE | soluble
MNIVEEHREKCTQCGQCLSVCPRYDDLGLLDLLYGYLEGTSEIEPDSLLSCLTCGLCADACPEALGIKMLISPARQKWVSEHGLTDRQLEHHHHHH | not soluble
MNIYQQLVKQKLKTITPEELVSYSREYGLPITTSQAKQILHLARTNDINVFDPEERKKWVRELAKITSPDIARKANELFLKFVQKK | not soluble
MNKEALVQVAEEVRRATGLPVGWRDVERTLGALRATRDLWEAVRLSRVPLRFLVPIWEGLARRGLLRVEEGLDLLAEVPAPRPGEAACPACEGRGLVGERLPGRAAERFLAWAKERPEAIQDFDQGYVTPESTLARVALAWNWGDLEGKEVLVLGDDDLTGLAAALTGLPKRVVVLDADPRIVRFLERAAKAEGLPLEAHVHDLREPLPEAWVHAFHTFFTDPVEGPLGLQAFVGRGLLALEGEGCAGYVGLTHVEASLAKWADFQRFLLENGAVITELRDGFHVYENWGYIEQMRAWPWLPVKRRPEKPWYTSALIRLELLRRADLENARVEGDLQDEEATTY | soluble

Source: the DeepSol protein solubility set
